For experiment [1], the target named is human platelet CD36 (human) (UniProt P16671). The experiment is described as follows: cell-based or functional assay.
In the next experiment the target is T1, BSA (bovine, UniProt P02769 25-607).
T1 construct: also called bovine serum albumin
The experiment is described as follows: plate binding assay, wells coated with BSA (10 µg/mL), detection with anti-human MRP-14 antibody and HRP-conjugated secondary antibody at 450 nm. The procedure: High-protein binding plate (Nunc, Thermo Scientific) was coated with purified CD36 (Abcam) or BSA (10 μg/mL) overnight at 4° C. After blocking with 10% BSA at RT for 2 hours, purified human MRP-14 protein (0-2.5 μg/ml) was added and incubated for 2 hours at RT. After washing, plate was incubated with anti-human MRP-14 antibody for one hour followed by washing and incubation with HRP-conjugated secondary antibody that was detected with TMB substrate (Thermo Scientific) at 450 nm.

T1 sequence (P02769 25-607 limits assumed): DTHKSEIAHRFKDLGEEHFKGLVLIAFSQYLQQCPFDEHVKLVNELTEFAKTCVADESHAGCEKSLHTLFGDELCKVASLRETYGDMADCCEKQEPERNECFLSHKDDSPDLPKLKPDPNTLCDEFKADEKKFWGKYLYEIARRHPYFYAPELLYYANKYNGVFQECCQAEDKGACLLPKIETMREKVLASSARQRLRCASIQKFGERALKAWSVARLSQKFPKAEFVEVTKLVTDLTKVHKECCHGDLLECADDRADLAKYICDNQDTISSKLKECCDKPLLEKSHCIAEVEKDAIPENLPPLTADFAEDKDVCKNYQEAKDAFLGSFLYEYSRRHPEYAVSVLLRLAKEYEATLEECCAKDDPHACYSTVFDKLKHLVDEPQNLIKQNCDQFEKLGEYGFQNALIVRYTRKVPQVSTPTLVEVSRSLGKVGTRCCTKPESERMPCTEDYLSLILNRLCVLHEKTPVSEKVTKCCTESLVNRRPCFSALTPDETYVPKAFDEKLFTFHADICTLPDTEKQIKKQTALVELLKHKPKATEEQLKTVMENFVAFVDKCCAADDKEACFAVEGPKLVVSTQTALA
human platelet CD36 (human), sequence (P16671 2-472 limits assumed): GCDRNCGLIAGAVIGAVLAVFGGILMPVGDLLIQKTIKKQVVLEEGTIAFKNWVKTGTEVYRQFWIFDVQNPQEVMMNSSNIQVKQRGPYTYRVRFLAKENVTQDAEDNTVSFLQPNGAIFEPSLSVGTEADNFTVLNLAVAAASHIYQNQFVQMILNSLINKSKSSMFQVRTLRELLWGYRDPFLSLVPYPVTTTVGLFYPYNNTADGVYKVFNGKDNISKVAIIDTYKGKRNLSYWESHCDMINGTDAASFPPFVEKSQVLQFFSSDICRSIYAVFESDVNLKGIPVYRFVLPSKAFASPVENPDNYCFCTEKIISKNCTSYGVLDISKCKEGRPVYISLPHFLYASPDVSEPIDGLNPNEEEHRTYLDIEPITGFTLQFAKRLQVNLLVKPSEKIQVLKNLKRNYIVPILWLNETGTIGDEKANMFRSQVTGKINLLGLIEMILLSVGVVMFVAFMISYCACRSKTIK

Take “anti-human CD36 monoclonal antibody (clone FA6-152)”: in experiment [1], the percentage of inhibition of shear-induced thrombus formation in anticoagulated human whole blood (antibody 10 µg/ml) was 53.8%.

B1: purified, recombinant human MRP-14 (ligand, UniProt P06702 1-114, looked up)
chain: MTCKMSQLERNIETIINTFHQYSVKLGHPDTLNQGEFKELVRKDLQNFLKKENKNEKVIEHIMEDLDTNADKQLSFEEFIMLMARLTWASHEKMHEGDEGPGHHHKPGLGEGTP
notes: Bought protein; also called purified MRP-14; purified human MRP-14 protein
Take B1: in the experiment with BSA, the binding result is given as “no binding (tested: 0-2.5 µg/ml MRP-14)”.

Source of the values: US20160297875A1 (CASE WESTERN RESERVE UNIVERSITY, published 2016).
